Assay results reported in patent publication US20220332804A1 (CSL INNOVATION, published 2022).

Tests used:
human complement C2 [1] = target: T1, human complement C2 (human, UniProt P06681 21-752); experiment: SPR, mAb captured, C2 analyte
T1 construct: Recombinant full-length human C2 with C-terminal 8x His tag, purified from Expi293F supernatant; also called human C2; huC2
T1 sequence: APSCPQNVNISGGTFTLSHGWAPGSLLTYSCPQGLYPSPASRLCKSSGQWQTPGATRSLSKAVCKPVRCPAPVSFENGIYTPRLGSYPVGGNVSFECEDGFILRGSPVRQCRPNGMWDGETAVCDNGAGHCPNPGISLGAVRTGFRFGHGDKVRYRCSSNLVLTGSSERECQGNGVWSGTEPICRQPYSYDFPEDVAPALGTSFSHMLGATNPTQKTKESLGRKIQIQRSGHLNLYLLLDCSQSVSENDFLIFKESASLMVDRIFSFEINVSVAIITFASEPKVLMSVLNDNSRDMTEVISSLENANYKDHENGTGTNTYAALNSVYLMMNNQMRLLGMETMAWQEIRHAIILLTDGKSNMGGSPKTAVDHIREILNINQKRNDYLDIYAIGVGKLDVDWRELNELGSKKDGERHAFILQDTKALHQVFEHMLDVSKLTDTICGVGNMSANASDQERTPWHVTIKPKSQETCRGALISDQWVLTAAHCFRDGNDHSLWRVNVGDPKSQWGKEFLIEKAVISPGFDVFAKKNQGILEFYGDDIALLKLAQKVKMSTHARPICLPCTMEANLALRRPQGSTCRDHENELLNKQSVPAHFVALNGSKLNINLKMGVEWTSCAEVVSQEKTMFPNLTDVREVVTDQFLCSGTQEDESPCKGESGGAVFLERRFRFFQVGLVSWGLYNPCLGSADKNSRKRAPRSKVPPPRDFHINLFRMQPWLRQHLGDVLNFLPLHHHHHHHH

human complement C2 [2] = target: T1, human complement C2; experiment: SPR, mAb captured, huC2 analyte, pH 6, steady state
human complement C2 [3] = target: T1, human complement C2; experiment: SPR, mAb captured, huC2 analyte, pH 6
human C2 D454A = target: T2, human C2 D454A (human, UniProt P06681 21-752); experiment: SPR, antibody captured, C2 as analyte;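 further: biacore at 37 °C, anti-C2 mAbs held by immobilised goat anti-human IgG, C2 alanine or serine mutants injected, double-referenced sensorgrams fitted to a 1:1 kinetic or steady-state model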
T2 sequence: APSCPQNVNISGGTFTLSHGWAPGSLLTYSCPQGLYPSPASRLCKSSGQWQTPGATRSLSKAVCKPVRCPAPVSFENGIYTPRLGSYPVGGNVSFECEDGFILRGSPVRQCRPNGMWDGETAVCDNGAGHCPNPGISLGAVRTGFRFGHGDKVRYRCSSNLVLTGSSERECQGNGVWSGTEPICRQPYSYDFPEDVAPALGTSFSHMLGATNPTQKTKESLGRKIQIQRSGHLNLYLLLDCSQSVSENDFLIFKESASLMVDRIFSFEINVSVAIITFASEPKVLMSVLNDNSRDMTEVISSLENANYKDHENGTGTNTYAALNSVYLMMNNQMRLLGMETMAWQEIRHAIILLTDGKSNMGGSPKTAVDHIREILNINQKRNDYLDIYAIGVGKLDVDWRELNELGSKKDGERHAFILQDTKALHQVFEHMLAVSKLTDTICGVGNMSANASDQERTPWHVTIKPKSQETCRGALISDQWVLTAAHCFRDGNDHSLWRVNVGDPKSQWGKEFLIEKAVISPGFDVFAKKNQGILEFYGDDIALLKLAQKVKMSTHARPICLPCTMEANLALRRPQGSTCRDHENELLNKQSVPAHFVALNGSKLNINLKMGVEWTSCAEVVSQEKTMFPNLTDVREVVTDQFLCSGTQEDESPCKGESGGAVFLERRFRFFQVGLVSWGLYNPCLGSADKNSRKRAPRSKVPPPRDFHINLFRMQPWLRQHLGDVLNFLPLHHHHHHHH

B1: RF16-214 (antibody, V domains shown)
VH: EVQLLESGGGLVQPGGSLRLSCAASGFTFSWYQMMWVRQAPGKGLEWVSRIYPSGGGTAYADSVKGRFTISRDNSKNTLYLQMNSLRAEDTAVYYCARDAGYGDNWGQGTLVTVSS
VL: QSALTQPPSVSVSPGQTASITCSGDKLGEKYASWYQQKAGQSPVMVIYQDRKRPSGIPERFSGSNSGNTATLTISGTQAMDEADYYCQAWDTRAVVFGGGTKLTVLG
Question: How did the Kd (human complement C2 [1]) turn out when B1 was run?
Answer: The Kd was 31 nM.

B2: RF16-226 (antibody)
heavy: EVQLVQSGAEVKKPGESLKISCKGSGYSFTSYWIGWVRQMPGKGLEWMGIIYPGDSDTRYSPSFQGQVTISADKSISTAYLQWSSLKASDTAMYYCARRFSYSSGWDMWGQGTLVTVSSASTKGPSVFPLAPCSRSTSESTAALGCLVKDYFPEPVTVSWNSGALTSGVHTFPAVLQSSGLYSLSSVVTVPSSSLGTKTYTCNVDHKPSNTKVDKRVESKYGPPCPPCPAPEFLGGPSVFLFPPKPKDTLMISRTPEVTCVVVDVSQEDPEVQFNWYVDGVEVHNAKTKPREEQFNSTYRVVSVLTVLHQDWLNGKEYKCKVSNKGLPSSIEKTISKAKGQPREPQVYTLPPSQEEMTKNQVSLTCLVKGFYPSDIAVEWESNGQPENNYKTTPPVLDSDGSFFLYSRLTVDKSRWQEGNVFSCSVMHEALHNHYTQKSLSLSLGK
light: SYELTQPPSVSVSPGQTARITCSGDALTSKYVAWYQQKSGLAPLLVIYEDTRRPSGIPAKFSGSSSGSVATLTISGAHGDDEADYYCYSTDASGHQRVFGGGTKLTVLSQPKAAPSVTLFPPSSEELQANKATLVCLISDFYPGAVTVAWKADGSPVKAGVETTKPSKQSNNKYAASSYLSLTPEQWKSHRSYSCQVTHEGSTVEKTVAPTECS
Question: How did the Kd (human complement C2 [2]) turn out when B2 was run?
Answer: The Kd was roughly 95 nM.

Question: What about the Kd (human complement C2 [3]) of the same binder?
Answer: The Kd was roughly 80 nM.

B3: RF16-242 (antibody, human IgG4 S228P, lambda, V domains shown)
VH: EVQLLQSGAEVKKPGESLKISCKGSGYSFTSYWIGWVRQMPGKGLEWMGIIYPGDSDTRYSPSFQGQVTISADKSISTAYLQWSSLKASDTAMYYCARRGHYGDYFDYWGQGTLVTVSS
VL: SYELTQPPSVSVSPGQTARITCSGDALPKKYAYWYHQKSGQAPVLVIYEDRRRPSEIPERFSGSSSGTMATLTITGAQVEDEGVYFCYSRDRAGNQRVFGGGTQLTVLG
notes: pH-dependent anti-C2 antibody from a phage display library
Question: Which Kd (human C2 D454A) does the source give for B3 here?
Answer: The Kd was 35.4 nM.
